# Assay results: FireProtDB (doi:10.1021/bi00458a027)
# Values joined by “and” are separate entries in the source; they are usually repeats but may differ in a detail not shown here. Equal entries are not always repeated.
# B1: Tryptophan synthase alpha chain wild type, P0A877 (protein)
# chain: MERYESLFAQLKERKEGAFVPFVTLGDPGIEQSLKIIDTLIEAGADALELGIPFSDPLADGPTIQNATLRAFAAGVTPAQCFEMLALIRQKHPTIPIGLLMYANLVFNKGIDEFYAQCEKVGVDSVLVADVPVEESAPFRQAALRHNVAPIFICPPNADDDLLRQIASYGRGYTYLLSRAGVTGAENRAALPLNHLVAKLKEYNAAPPLQGFGISAPDQVKAAIDAGAAGAISGSAIVKIIEQHINEPEKMLAALKVFVQPMKAATRS
# Details: Escherichia coli (strain K12), pH 7.8, Urea, CD, Potassium phosphate 10 mM, whole UniProt chain shown
protein,measurement,setting,value
B1,denaturant m value,4 °C,3.1 kcal/mol/M and 1.9 kcal/mol/M
same,denaturant midpoint (higher = more stable),4 °C,1.63 M and 3.17 M
same,unfolding free energy,4 °C,5 kcal/mol and 6 kcal/mol
same,denaturant m value,25 °C,1.2 kcal/mol/M
same,denaturant midpoint (higher = more stable),25 °C,4.18 M
same,unfolding free energy,25 °C,5 kcal/mol
